Reference: the supplement of paper PMC12042874
± gives the uncertainty stated by the source.

Assay: amyloid nucleation score (Sup35N fusion, yeast selection) (log enrichment); library NNK1; higher = more nucleation; inactive = no reads after selection
In short: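 The nucleation score is a DiMSum log enrichment of output over input reads, centred on the mode score of non-aggregating sequences. Sequences under 100 input reads were excluded, and reads came from Illumina sequencing of plasmid inserts. Psi-negative yeast expressing Sup35N fused to peptides of 20 random codons were induced with 100 μM copper sulfate for 24 hours and grown 7 days at 30°C on medium lacking adenine and uracil. Random libraries had three technical output replicates.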
AMYHLGQSSLLYSRPFNSTK showed an amyloid nucleation score of -0.595 ± 1.6.
For RNYCDPGAFGVWGVTGHHRV, the amyloid nucleation score was -0.816 ± 0.92.
DLNDMAIRV gave an amyloid nucleation score of 0.004 ± 0.31.
Substance FNWLTVSAFHQHRTLTMNMY has an amyloid nucleation score of 0.216 ± 0.3.
Substance HCMLGMFHWVRRQVYRSTKW has an amyloid nucleation score of 2.34 ± 0.25.
For LHSPDFDLYYVLRILACDTQ, the amyloid nucleation score was -0.866 ± 1.7.
With TVVYDWFG the amyloid nucleation score was -0.078 ± 0.75.
Work on CQRAFI yielded an amyloid nucleation score of -0.041 ± 0.77.
DHASIGMALYCFCYQVSFIL showed an amyloid nucleation score of 0.391 ± 0.42.
For DACGNWCYCWRALDGQDGSI, the amyloid nucleation score was 0.099 ± 0.31.
Substance DSQGFMRVISLMFVDGSLLA has an amyloid nucleation score of 0.591 ± 0.54.
For SRLRCMEH, the amyloid nucleation score was 2.51 ± 0.15.
Substance SNISSHQEASWRAYRFSESV has an amyloid nucleation score of 0.147 ± 0.57.
In the case of RWGGDALNAWHASDSSVGLR, the amyloid nucleation score is reported as -1.01 ± 0.73.
SEVSISGVVYFDHREVVEV showed an amyloid nucleation score of -0.165 ± 1.4.
In the case of GSNLVQKRRCYSWMSLYLSS, the amyloid nucleation score is reported as 0.333 ± 0.26.
With PMVIYNFEFNFGVSSDRIYA the amyloid nucleation score was 4.35 ± 0.15.
Substance LHLPHLRIRTNYSGLILSVM has an amyloid nucleation score of -0.513 ± 0.56.
GCSVVNMADMG showed an amyloid nucleation score of 1.29 ± 0.45.
With YVLWNRASIAPYIQHGLRVL the amyloid nucleation score was 1.19 ± 0.19.
MRFVIQVLYTGGTKKSSHLM showed an amyloid nucleation score of 1.16 ± 0.79.
WFELWKSVRGMENYAYVARC showed an amyloid nucleation score of -0.043 ± 0.29.
In the case of CSGTICLIIRKLAVILTSQR, the amyloid nucleation score is reported as “inactive”.
In the case of RLFRNTPSDFTFVYTCGRDA, the amyloid nucleation score is reported as 0.497 ± 0.57.
In the case of SIMSFH, the amyloid nucleation score is reported as “inactive”.
For NHALYDIWLIALSSRLYCQN, the amyloid nucleation score was 0.342 ± 0.4.
GFSEKQNY gave an amyloid nucleation score of 0.383 ± 0.54.
KELPSSSTCLKFS showed an amyloid nucleation score of -0.155 ± 0.44.
Substance AKIWVWSWWY has an amyloid nucleation score of 0.039 ± 0.47.
With TYPYMCNHFLVLELNVIVAL the amyloid nucleation score was 0.363 ± 0.58.
For KYLSYTVVCGLTNDSWHLMH, the amyloid nucleation score was -0.196 ± 0.46.
For GRMTFFLVWNCVSFFVTQLL, the amyloid nucleation score was -0.611 ± 2.1.
In the case of RIFLSVLLLMTVNVSVWPCH, the amyloid nucleation score is reported as -1.23 ± 1.5.
With TSFLV the amyloid nucleation score was -0.028 ± 0.91.
For TAFFCRFPSCGGYIAYRSYV, the amyloid nucleation score was -1 ± 1.2.
For FLLHWFEYGIPNVYRSRRD, the amyloid nucleation score was “inactive”.
MAVYFLGFIA gave an amyloid nucleation score of 0.604 ± 0.59.
With SRCYMDSIV the amyloid nucleation score was 0.101 ± 0.36.
In the case of GWMVRMLEHYHPAV, the amyloid nucleation score is reported as -0.226 ± 0.42.
FYIILNVLFPRQVTCSDK showed an amyloid nucleation score of 5.7 ± 0.075.
In the case of YNVSHLIRV, the amyloid nucleation score is reported as -0.959 ± 0.26.
For VMKDTQLLCNFRVSRVLMFE, the amyloid nucleation score was “inactive”.
RNSDFHFIFWY gave an amyloid nucleation score of 0.865 ± 0.37.
In the case of RVRGSASMLLSLMCSFTMYE, the amyloid nucleation score is reported as 3.3 ± 0.14.
With IFFFKEYCFMQVIRGFVCN the amyloid nucleation score was -0.265 ± 1.1.
With VVDMTVGFENARCGMREVWT the amyloid nucleation score was -0.328 ± 1.3.
Work on LDRFVYY yielded an amyloid nucleation score of 1.41 ± 0.69.
Work on MSALTGQKPLVMVGGLCAVG yielded an amyloid nucleation score of 0.449 ± 0.55.
Work on DNSPSSWFDWDLGEIGVRVE yielded an amyloid nucleation score of -0.469 ± 1.
LTLVNASSSRYEMSLFFQSI showed an amyloid nucleation score of 2.53 ± 0.12.
In the case of VLCVFCGNLHMIVLDCAFDA, the amyloid nucleation score is reported as 8.589 ± 0.051.
DKTMVGTPGLTHMVVDGVE gave an amyloid nucleation score of 0.12 ± 0.84.
Substance LCFLWIGVP has an amyloid nucleation score of -0.241 ± 1.
TYPYRPLHSPFTNRFLSPNG showed an amyloid nucleation score of -0.926 ± 0.73.
In the case of RSYEDGALVVVGMRFGDRLR, the amyloid nucleation score is reported as 0.336 ± 0.87.
WLWSQLVESCGRVRCSGGSG gave an amyloid nucleation score of 1.37 ± 0.5.
Substance IILWAWCKTGGDGIPSGVVL has an amyloid nucleation score of 0.342 ± 0.23.
For PSRLIYDYAAFTVVGLLEMF, the amyloid nucleation score was -0.235 ± 0.56.
In the case of LVCVSQVYGALDTCGPVSMM, the amyloid nucleation score is reported as 0.379 ± 0.54.
NYILFWRTSSNFECPYP gave an amyloid nucleation score of 0.181 ± 0.24.
RTLSWFRRKIIVLYLYYTHS showed an amyloid nucleation score of -0.272 ± 0.88.
In the case of SRYIGSSPARMMASWTFQGL, the amyloid nucleation score is reported as 4.01 ± 0.078.
CTLILSQQFSSIPVHFILYM showed an amyloid nucleation score of 4.4 ± 0.05.
With VPVWFSTSISQWSNLQ the amyloid nucleation score was -1.09 ± 2.4.
For RRGTSFLQIYLACSHVQTSH, the amyloid nucleation score was 4.56 ± 0.11.
In the case of AGVCYWTLDILPY, the amyloid nucleation score is reported as 0.789 ± 0.9.
For VLGSVIGFLWNP, the amyloid nucleation score was 2.23 ± 0.088.
In the case of DSRKSRYGSWVLRWS, the amyloid nucleation score is reported as “inactive”.
Substance PLSVFTTPPSDHCDIKGKIE has an amyloid nucleation score of -0.852 ± 2.1.
CSWFVYSNFFSHQMADMEWL gave an amyloid nucleation score of 0.183 ± 0.58.
With VSVGVILCSVRNKVNRGMDD the amyloid nucleation score was “inactive”.
RPRSDSRGTRKDNGFDDVKL gave an amyloid nucleation score of 0.438 ± 0.39.
RSVSRRGYVGAFPSQVWLGL showed an amyloid nucleation score of 0.214 ± 0.77.
For RFNISIPD, the amyloid nucleation score was -1.01 ± 0.5.
EAGKLL gave an amyloid nucleation score of 0.309 ± 0.32.
With SIANNKRTKTVGLMLSCRSS the amyloid nucleation score was 3.79 ± 0.14.
NACFRYKAKMDRMSTRGANS gave an amyloid nucleation score of 1.88 ± 0.39.
FDLFVKGECFVVRPLATSTY showed an amyloid nucleation score of -0.66 ± 0.38.
With GIFKVEHFFKFMYDLIVSKL the amyloid nucleation score was -0.312 ± 0.27.
SQYSADSVHGCHLSVSPTWF gave an amyloid nucleation score of 1 ± 0.81.
Work on FMYTDPDSVPQGSDTTSLAL yielded an amyloid nucleation score of -0.129 ± 0.46.
With FHVDDHKWRLPDGELSRTAM the amyloid nucleation score was -0.341 ± 0.78.
With PTRCQVWLGGTLHVRVVDLS the amyloid nucleation score was -0.424 ± 0.4.
Substance LCLILVGSY has an amyloid nucleation score of 0.062 ± 0.79.
